These results are taken from EP1724589A2.

Assay [1] deals with S-100b. The assay is described as follows: ELISA: S-100b coated at 500 ng/well, sRAGE at 1.0 x 10^-4 mg/ml, detected with anti-sRAGE antibody complex.
The target of assay [2] is S-100b. The assay is described as follows: ELISA saturation curve with Scatchard analysis (Figure 8): S-100b coated at 50 ng/well, sRAGE about 0.3 to 10 nM, high affinity component. On the technique in general: An ELISA detects its analyte on a solid surface through an enzyme-linked reagent.
For assay [3], the target named is S-100b. The assay is described as follows: ELISA saturation curves with Scatchard analysis (Figures 10 and 11): S-100b coated at 500 and 100 ng/well, sRAGE about 23 to 470 nM or 5 to 76 nM, low affinity site.
Assay [4] concerns the target S-100b. The assay is described as follows: ELISA saturation curve with Scatchard analysis (Figure 9): S-100b coated at 100 ng/well, sRAGE about 0.3 to 10 nM, high affinity component.
For assay [5], the target named is S-100b. The assay is described as follows: ELISA: 88 wells coated with S-100b at 500 ng/well, sRAGE at 2.2 x 10^-4 mg/ml, polyclonal anti-sRAGE detection (Figure 7).

Turning to “soluble RAGE (sRAGE), the soluble, extracellular portion of human Receptor for Advanced Glycated Endproducts (from UniProt Q15109 23-339)”, the OD (maximal signal) in the assay with S-100b [1] was determined as 1.06 OD. Further, the values for the Kd with S-100b [2], in the assay with S-100b [3] and in the assay with S-100b [4] were 6 nM, 60 nM and 2 nM, respectively. For the same substance, the average OD405 with S-100b [5] stood at 0.705 OD405.
